Measured values reported in paper PMC9270254.

Key:
human IgM (human) = assay: SPR
human IgG (human) = assay: SPR

- Kd1 (first phase, two-exponential fit) (human IgM (human)): 8.5 nM
- kd1 (first phase, two-exponential fit) (human IgM (human)): 0.029 s⁻¹
- kd2 (second phase, two-exponential fit) (human IgM (human)): 0.0023 s⁻¹
- Kd1 (first phase, two-exponential fit) (human IgG (human)): 6.8 nM
- kd1 (first phase, two-exponential fit) (human IgG (human)): 0.032 s⁻¹
- kd2 (second phase, two-exponential fit) (human IgG (human)): 0.0021 s⁻¹
Substance: single-chain mouse globular part of C1q (from UniProt P98086 110-245; Q02105 116-246; P14106 115-253) (domain or fragment)
